Source: PMC4251946, “The mechanism of H171T resistance reveals the importance of Nδ-protonated His171 for the binding of allosteric inhibitor BI-D to HIV-1 integrase” (Retrovirology, 2014)

Columns and labels:
[1] = molecular target: H171T HIV-1 integrase (IN) (HIV-1); test: SEC; Superdex 200 10/300 GL; 20 mM HEPES pH 6.8, 750 mM NaCl, 10 mM MgSO4, 0.2 mM EDTA, 5 mM BME, 5% glycerol, 200 μM ZnCl2; 4°C; tetramer and monomer peaks
[2] = molecular target: H171T HIV-1 integrase (IN) (HIV-1); test: AlphaScreen or HTRF
[3] = molecular target: T1, LEDGF/p75 (UniProt O75475 1-530); test: AlphaScreen or HTRF; settings: both partners purified
T1 construct: source: E. coli, purified as described previously [37]; not shown: FLAG, C-terminal, kept

H171T HIV-1 integrase (IN) (enzyme)
stoichiometry N [1]: 4

LEDGF/p75 (from UniProt O75475 1-530) (natural protein)
Kd [2]: 10.5 nM

B1: WT HIV-1 integrase (IN) (enzyme)
chain: FLDGIDKAQEEHEKYHSNWRAMASDFNLPPVVAKEIVASCDKCQLKGEAMHGQVDCSPGIWQLDCTHLEGKVILVAVHVASGYIEAEVIPAETGQETAYFLLKLAGRWPVKTVHTDNGSNFTSTTVKAACWWAGIKQEFGIPYNPQSQGVIESMNKELKKIIGQVRDQAEHLKTAVQMAVFIHNFKRKGGIGGYSAGERIVDIIATDIQTKELQKQITKIQNFRVYYRDSRDPVWKGPAKLLWKGEGAVVIQDNSDIKVVPRRKAKIIRDYGKQMAGDDCVASRQDED
notes: also called WT IN; source: E. coli, purified as described previously [37]; not shown: 6xHis, N-terminal, kept
Kd [3]: 3.3 ± 0.3 nM
